Laboratory results from patent US20090054362.

Columns and labels:
[1] = target: gp120 (SU envelope glycoprotein) (HIV-1 Ba-L) (UniProt P03375); test: EMSA; conditions: 2'-F C and U, tRNA, room temp, also dose-dependent SPR
[2] = target: HIV-1 Ba-L virus (envelope gp120) (HIV-1 Ba-L) (UniProt P03375); test: cell_activity; conditions: 2'-F C and U; neutralization in human PBMCs, p24 ELISA

Sequence: GGGAGACAAGACUAGACGCUCAAUGUGGGCCACGCCCGAUUUUACGCUUUUACCCGCACGCGAUUGGUUUGUUUUCGACAUGAGACUCACAACAGUUCCCUUUAGUGAGGGUUAAUU [B40]
- Kd ([1]; 1x cHBS (10 mM HEPES pH 7.4, 150 mM NaCl, 1 mM CaCl2, 1 mM MgCl2, 2.7 mM KCl)): 21 nM
- IC50 [2]: 2 nM

Sequence: GGGAGACAAGACUAGACGCUCAAUGUGGGCCACGCCCGAUUUUACGCUUUUACCCGCACGCGAUUGGUUUGUUUCCC [B40t77]
- Kd ([1]; 1x cHBS): 31 nM
- IC50 [2]: 2 nM
